# Measurements: patent publication US9957297B2, “Template-fixed peptidomimetics as inhibitors of FPR1” (POLYPHOR AG, priority 2011, dated 2018)
# Bridges are numbered along the chain shown (N, C = ends). [ ]: non-standard residue; d: D form. hSer = N[C@@H](CCO)C(=O)O; Dab = NCC[C@H](N)C(=O)O
# T1: Formyl-Peptide Receptor 1 (UniProt P21462 1-350, limits assumed)
# T1 sequence (looked up): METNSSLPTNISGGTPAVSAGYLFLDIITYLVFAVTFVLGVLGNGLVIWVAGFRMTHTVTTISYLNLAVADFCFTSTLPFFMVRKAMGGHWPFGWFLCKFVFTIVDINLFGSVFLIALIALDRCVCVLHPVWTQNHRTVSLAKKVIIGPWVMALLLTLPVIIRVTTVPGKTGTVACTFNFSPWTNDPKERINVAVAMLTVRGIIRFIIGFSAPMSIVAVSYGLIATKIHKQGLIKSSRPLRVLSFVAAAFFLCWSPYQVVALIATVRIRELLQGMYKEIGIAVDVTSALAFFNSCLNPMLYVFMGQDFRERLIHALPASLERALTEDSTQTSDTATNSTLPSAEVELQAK
# Molecular target: T1, Formyl-Peptide Receptor 1
# Experiment: cell-based or functional assay
row,Binder,β-Arrestin IC50 [nM]
1,cyclo(YHKCWG[dA]WTICYEK[dP]P) (disulfide 4-11; SMILES CC[C@H](C)[C@@H]1NC(=O)[C@H]([C@@H](C)O)NC(=O)[C@H](Cc2c[nH]c3ccccc23)NC(=O)[C@@H](C)NC(=O)CNC(=O)[C@H](Cc2c[nH]c3ccccc23)NC(=O)[C@@H]2CSSC[C@H](NC1=O)C(=O)N[C@@H](Cc1ccc(O)cc1)C(=O)N[C@@H](CCC(=O)O)C(=O)N[C@@H](CCCCN)C(=O)N1CCC[C@@H]1C(=O)N1CCC[C@H]1C(=O)N[C@@H](Cc1ccc(O)cc1)C(=O)N[C@@H](Cc1c[nH]cn1)C(=O)N[C@@H](CCCCN)C(=O)N2) [cyclo(-Tyr-His-Lys-Cys-Trp-Gly-^DAla-Trp-Thr-Ile-Cys-Tyr-Glu-Lys-^DPro-Pro-)],69
2,cyclo(YHKCHG[dA]WTICYEK[dP]P) (disulfide 4-11; SMILES CC[C@H](C)[C@@H]1NC(=O)[C@H]([C@@H](C)O)NC(=O)[C@H](Cc2c[nH]c3ccccc23)NC(=O)[C@@H](C)NC(=O)CNC(=O)[C@H](Cc2c[nH]cn2)NC(=O)[C@@H]2CSSC[C@H](NC1=O)C(=O)N[C@@H](Cc1ccc(O)cc1)C(=O)N[C@@H](CCC(=O)O)C(=O)N[C@@H](CCCCN)C(=O)N1CCC[C@@H]1C(=O)N1CCC[C@H]1C(=O)N[C@@H](Cc1ccc(O)cc1)C(=O)N[C@@H](Cc1c[nH]cn1)C(=O)N[C@@H](CCCCN)C(=O)N2) [cyclo(-Tyr-His-Lys-Cys-His-Gly-^DAla-Trp-Thr-Ile-Cys-Tyr-Glu-Lys-^DPro-Pro-)],77
3,cyclo(YHKCWG[dP]WTICY[Dab]K[dP]P) (disulfide 4-11; SMILES CC[C@H](C)[C@@H]1NC(=O)[C@H]([C@@H](C)O)NC(=O)[C@H](Cc2c[nH]c3ccccc23)NC(=O)[C@H]2CCCN2C(=O)CNC(=O)[C@H](Cc2c[nH]c3ccccc23)NC(=O)[C@@H]2CSSC[C@H](NC1=O)C(=O)N[C@@H](Cc1ccc(O)cc1)C(=O)N[C@@H](CCN)C(=O)N[C@@H](CCCCN)C(=O)N1CCC[C@@H]1C(=O)N1CCC[C@H]1C(=O)N[C@@H](Cc1ccc(O)cc1)C(=O)N[C@@H](Cc1c[nH]cn1)C(=O)N[C@@H](CCCCN)C(=O)N2) [cyclo(-Tyr-His-Lys-Cys-Trp-Gly-^DPro-Trp-Thr-Ile-Cys-Tyr-Dab-Lys-^DPro-Pro-)],633
4,cyclo(YHKCHG[dP]WTICY[hSer]K[dP]P) (disulfide 4-11; SMILES CC[C@H](C)[C@@H]1NC(=O)[C@H]([C@@H](C)O)NC(=O)[C@H](Cc2c[nH]c3ccccc23)NC(=O)[C@H]2CCCN2C(=O)CNC(=O)[C@H](Cc2c[nH]cn2)NC(=O)[C@@H]2CSSC[C@H](NC1=O)C(=O)N[C@@H](Cc1ccc(O)cc1)C(=O)N[C@@H](CCO)C(=O)N[C@@H](CCCCN)C(=O)N1CCC[C@@H]1C(=O)N1CCC[C@H]1C(=O)N[C@@H](Cc1ccc(O)cc1)C(=O)N[C@@H](Cc1c[nH]cn1)C(=O)N[C@@H](CCCCN)C(=O)N2) [cyclo(-Tyr-His-Lys-Cys-His-Gly-^DPro-Trp-Thr-Ile-Cys-Tyr-Hse-Lys-^DPro-Pro-)],138
5,cyclo(YHKCHG[dP]WTLCYEK[dP]P) (disulfide 4-11; SMILES CC(C)C[C@@H]1NC(=O)[C@H]([C@@H](C)O)NC(=O)[C@H](Cc2c[nH]c3ccccc23)NC(=O)[C@H]2CCCN2C(=O)CNC(=O)[C@H](Cc2c[nH]cn2)NC(=O)[C@@H]2CSSC[C@H](NC1=O)C(=O)N[C@@H](Cc1ccc(O)cc1)C(=O)N[C@@H](CCC(=O)O)C(=O)N[C@@H](CCCCN)C(=O)N1CCC[C@@H]1C(=O)N1CCC[C@H]1C(=O)N[C@@H](Cc1ccc(O)cc1)C(=O)N[C@@H](Cc1c[nH]cn1)C(=O)N[C@@H](CCCCN)C(=O)N2) [cyclo(-Tyr-His-Lys-Cys-His-Gly-^DPro-Trp-Thr-Leu-Cys-Tyr-Glu-Lys-^DPro-Pro-)],153
6,cyclo(YHKCHG[dP]WTVCYEK[dP]P) (disulfide 4-11; SMILES CC(C)[C@@H]1NC(=O)[C@H]([C@@H](C)O)NC(=O)[C@H](Cc2c[nH]c3ccccc23)NC(=O)[C@H]2CCCN2C(=O)CNC(=O)[C@H](Cc2c[nH]cn2)NC(=O)[C@@H]2CSSC[C@H](NC1=O)C(=O)N[C@@H](Cc1ccc(O)cc1)C(=O)N[C@@H](CCC(=O)O)C(=O)N[C@@H](CCCCN)C(=O)N1CCC[C@@H]1C(=O)N1CCC[C@H]1C(=O)N[C@@H](Cc1ccc(O)cc1)C(=O)N[C@@H](Cc1c[nH]cn1)C(=O)N[C@@H](CCCCN)C(=O)N2) [cyclo(-Tyr-His-Lys-Cys-His-Gly-^DPro-Trp-Thr-Val-Cys-Tyr-Glu-Lys-^DPro-Pro-)],232
